Results from paper PMC3298081 (Arteriosclerosis, Thrombosis, and Vascular Biology, 2012).

Target: thrombospondin-1 (human, UniProt P07996 19-1170)
Assay: ELISA

thrombospondin-1, sequence (P07996 19-1170): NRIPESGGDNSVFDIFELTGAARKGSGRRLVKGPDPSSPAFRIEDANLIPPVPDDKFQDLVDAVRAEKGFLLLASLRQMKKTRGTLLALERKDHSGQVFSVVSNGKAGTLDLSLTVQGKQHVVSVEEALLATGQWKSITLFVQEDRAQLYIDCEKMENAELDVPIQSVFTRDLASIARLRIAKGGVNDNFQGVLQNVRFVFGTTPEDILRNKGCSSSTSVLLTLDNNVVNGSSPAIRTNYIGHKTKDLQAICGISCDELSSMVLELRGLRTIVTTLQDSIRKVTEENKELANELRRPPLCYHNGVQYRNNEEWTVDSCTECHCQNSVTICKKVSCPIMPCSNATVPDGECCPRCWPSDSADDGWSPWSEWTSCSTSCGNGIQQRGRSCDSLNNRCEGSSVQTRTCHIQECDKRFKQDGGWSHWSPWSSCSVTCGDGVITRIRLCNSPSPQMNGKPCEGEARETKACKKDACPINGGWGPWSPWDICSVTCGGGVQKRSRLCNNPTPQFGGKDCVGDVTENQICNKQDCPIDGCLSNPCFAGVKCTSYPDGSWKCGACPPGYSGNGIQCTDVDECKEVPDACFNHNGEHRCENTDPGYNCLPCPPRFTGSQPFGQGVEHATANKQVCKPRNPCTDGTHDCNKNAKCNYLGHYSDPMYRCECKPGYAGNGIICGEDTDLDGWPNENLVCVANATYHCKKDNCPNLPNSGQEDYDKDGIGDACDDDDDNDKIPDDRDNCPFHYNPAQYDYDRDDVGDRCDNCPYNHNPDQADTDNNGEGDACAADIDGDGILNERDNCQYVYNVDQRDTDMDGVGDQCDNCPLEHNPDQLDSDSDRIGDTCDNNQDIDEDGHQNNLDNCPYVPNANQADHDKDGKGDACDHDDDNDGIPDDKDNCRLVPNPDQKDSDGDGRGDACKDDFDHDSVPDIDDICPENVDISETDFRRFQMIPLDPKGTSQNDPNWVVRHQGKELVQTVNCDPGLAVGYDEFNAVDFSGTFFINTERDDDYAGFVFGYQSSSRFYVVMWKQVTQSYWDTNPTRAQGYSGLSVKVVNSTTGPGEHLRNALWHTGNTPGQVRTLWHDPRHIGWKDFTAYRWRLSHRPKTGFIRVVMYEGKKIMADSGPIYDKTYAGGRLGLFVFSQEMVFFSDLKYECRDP

binding result: binds
B1: recombinant thioredoxin/extended CD36 CLESH domain fusion protein (non-phosphorylated) (domain or fragment, human, UniProt P16671 81-120, looked up)
chain: SNIQVKQRGPYTYRVRFLAKENVTQDAEDNTVSFLQPNGA
